In the supplement of paper PMC5998384:

Columns and labels:
[1] = system: HeLa Kyoto; assay: solubility in G1/S (NP-40 vs SDS abundance) (log2 ratio); higher = more soluble; settings: cell cycle stage: G1/S
[2] = system: HeLa Kyoto; assay: melting temperature (median over replicates), in situ; higher = more thermally stable
[3] = system: HeLa Kyoto; assay: solubility change mitosis vs G1/S (difference of NP-40 vs SDS log2 ratios) (log2 ratio difference); higher = more soluble in mitosis
[4] = system: HeLa Kyoto; assay: thermal stability score vs G1/S (z-score of summed log2 fold changes over temperatures); higher = more thermally stable than in G1/S
[5] = cell cycle stage: early G1 (4.5 h after nocodazole release)
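Wherever melting temperature (median over replicates), in situ is given: HeLa Kyoto cells synchronized by double thymidine or nocodazole block, proteins quantified by TMT10plex mass spectrometry, three independent biological replicates.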
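Wherever solubility change mitosis vs G1/S (difference of NP-40 vs SDS log2 ratios) is given: synchronized HeLa Kyoto cells (double thymidine block for G1/S, nocodazole release for mitosis), protein amounts in NP-40 versus SDS lysates quantified by mass spectrometry, three biological replicates.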
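Wherever solubility in G1/S (NP-40 vs SDS abundance) is given: HeLa Kyoto cells arrested at G1/S by double thymidine block, proteins quantified by TMT10plex mass spectrometry in mild NP-40 versus SDS extracts, three biological replicates.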
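Wherever thermal stability score vs G1/S (z-score of summed log2 fold changes over temperatures) is given: synchronized HeLa Kyoto cells, proteins quantified by TMT10plex mass spectrometry, three biological replicates, mitosis taken 0.5 h after nocodazole release, G1/S directly after double thymidine block.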

Sequence | solubility in G1/S (log2) [1] | melting temperature ([2]; cell cycle stage: G1/S) | melting temperature ([2]; cell cycle stage: mitosis) | solubility change mitosis (log2) [3] | thermal stability score [4, 5] | thermal stability score ([4]; cell cycle stage: mitosis)
MESVSCSAAAVRTGDMESQRDLSLVPERLQRREQERQLEVERRKQKRQNQEVEKENSHFFVATFVRERAAVEELLERAESVERLEEAASRLQGLQKLINDSVFFLAAYDLRQGQEALARLQAALAERRRGLQPKKRFAFKTRGKDAASSTKVDAAPGIPPAVESIQDSPLPKKAEGDLGPSWVCGFSNLESQVLEKRASELHQRDVLLTELSNCTVRLYGNPNTLRLTKAHSCKLLCGPVSTSVFLEDCSDCVLAVACQQLRIHSTKDTRIFLQVTSRAIVEDCSGIQFAPYTWSYPEIDKDFESSGLDRSKNNWNDVDDFNWLARDMASPNWSILPEEERNIQWD [TBCC] | 0.242 | 51.8 °C | 52.4 °C | -0.152 | 0.786 | 0.503
MESYDIIANQPVVIDNGSGVIKAGFAGDQIPKYCFPNYVGRPKHMRVMAGALEGDLFIGPKAEEHRGLLTIRYPMEHGVVRDWNDMERIWQYVYSKDQLQTFSEEHPVLLTEAPLNPSKNREKAAEVFFETFNVPALFISMQAVLSLYATGRTTGVVLDSGDGVTHAVPIYEGFAMPHSIMRVDIAGRDVSRYLRLLLRKEGVDFHTSAEFEVVRTIKERACYLSINPQKDEALETEKVQYTLPDGSTLDVGPARFRAPELLFQPDLVGDESEGLHEVVAFAIHKSDMDLRRTLFANIVLSGGSTLFKGFGDRLLSEVKKLAPKDIKIKISAPQERLYSTWIGGSILASLDTFKKMWVSKKEYEEDGSRAIHRKTF [ACTR1B] | -0.021 | 54 °C | 53.1 °C | -0.178 | -0.612 | -1.12
METAEKECGALGGLFQAIVNDMKSSYPIWEDFNSKATKLHSQLRTTVLAAVAFLDAFQKVADMATNTRGATRDIGSALTRMCMRHRSIETKLRQFTNALLESLINPLQERIEDWKKAANQLDKDHAKEYKRARHEIKKKSSDTLKLQKKARKELLGKGDLQPQLDSALQDVNDMYLLLEETEKQAVRRALIEERGRFCTFITFLQPVVNGELTMLGEITHLQGIIDDLVVLTAEPHKLPPASEQVIKDLKGSDYSWSYQTPPSSPSSSSSRKSSMCSAPSSSSSAKGGGAPWPGGAQTYSPSSTCRYRSLAQPATTTARLSSVSSHDSGFVSQDATYSKPPSPMPSDITSQKSSSSASSEASETCQSVSECSSPTSDWSKVGSHEQPSGATLQRRKDRVELLRDTEPGPASGGTLGPSGEEAPRPRMSPATIAAKHGEEVSPAASDLAMVLTRGLSLEHQKSSRDSLQYSSGYSTQTTTPSCSEDTIPSQGSDYDCYSVNGDADSEGPPEFDKSSTIPRNSNIAQNYRRLIQTKRPASTAGLPTAGLPTATGLPSGAPPGVATIRRTPSTKPTVRRALSSAGPIPIRPPIVPVKTPTVPDSPGYMGPTRAGSEECVFYTDETASPLAPDLAKASPKRLSLPNTAWGSPSPEAAGYPGAGAEDEQQQLAANRHSLVEKLGELVAGAHALGEGQFPFPTALSATPTEETPTPPPAATSDPPAEDMLVAIRRGVRLRRTVTNDRSAPRIL [MTSS1L] | 0.191 | 53.5 °C | 54.2 °C | -0.0468 | 0.647 | 0.625
METLSFPRYNVAEIVIHIRNKILTGADGKNLTKNDLYPNPKPEVLHMIYMRALQIVYGIRLEHFYMMPVNSEVMYPHLMEGFLPFSNLVTHLDSFLPICRVNDFETADILCPKAKRTSRFLSGIINFIHFREACRETYMEFLWQYKSSADKMQQLNAAHQEALMKLERLDSVPVEEQEEFKQLSDGIQELQQSLNQDFHQKTIVLQEGNSQKKSNISEKTKRLNELKLSVVSLKEIQESLKTKIVDSPEKLKNYKEKMKDTVQKLKNARQEVVEKYEIYGDSVDCLPSCQLEVQLYQKKIQDLSDNREKLASILKESLNLEDQIESDESELKKLKTEENSFKRLMIVKKEKLATAQFKINKKHEDVKQYKRTVIEDCNKVQEKRGAVYERVTTINQEIQKIKLGIQQLKDAAEREKLKSQEIFLNLKTALEKYHDGIEKAAEDSYAKIDEKTAELKRKMFKMST [NUF2] | -0.0908 | 48.2 °C | 48.1 °C | -0.0858 | 0.86 | 1.16
METQLQSIFEEVVKTEVIEEAFPGMFMDTPEDEKTKLISCLGAFRQFWGGLSQESHEQCIQWIVKFIHGQHSPKRISFLYDCLAMAVETGLLPPRLVCESLINSDTLEWERTQLWALTFKLVRKIIGGVDYKGVRDLLKVILEKILTIPNTVSSAVVQQLLAAREVIAYILERNACLLPAYFAVTEIRKLYPEGKLPHWLLGNLVSDFVDTFRPTARINSICGRCSLLPVVNNSGAICNSWKLDPATLRFPLKGLLPYDKDLFEPQTALLRYVLEQPYSRDMVCNMLGLNKQHKQRCPVLEDQLVDLVVYAMERSETEEKFDDGGTSQLLWQHLSSQLIFFVLFQFASFPHMVLSLHQKLAGRGLIKGRDHLMWVLLQFISGSIQKNALADFLPVMKLFDLLYPEKEYIPVPDINKPQSTHAFAMTCIWIHLNRKAQNDNSKLQIPIPHSLRLHHEFLQQSLRNKSLQMNDYKIALLCNAYSTNSECFTLPMGALVETIYGNGIMRIPLPGTNCMASGSITPLPMNLLDSLTVHAKMSLIHSIATRVIKLAHAKSSVALAPALVETYSRLLVYMEIESLGIKGFISQLLPTVFKSHAWGILHTLLEMFSYRMHHIQPHYRVQLLSHLHTLAAVAQTNQNQLHLCVESTALRLITALGSSEVQPQFTRFLSDPKTVLSAESEELNRALILTLARATHVTDFFTGSDSIQGTWCKDILQTIMSFTPHNWASHTLSCFPGPLQAFFKQNNVPQESRFNLKKNVEEEYRKWKSMSNENDIITHFSMQGSPPLFLCLLWKMLLETDHINQIGYRVLERIGARALVAHVRTFADFLVYEFSTSAGGQQLNKCIEILNDMVWKYNIVTLDRLILCLAMRSHEGNEAQVCYFIIQLLLLKPNDFRNRVSDFVKENSPEHWLQNDWHTKHMNYHKKYPEKLYFEGLAEQVDPPVQIQSPYLPIYFGNVCLRFLPVFDIVIHRFLELLPVSKSLETLLDHLGGLYKFHDRPVTYLYNTLHYYEMHLRDRAFLKRKLVHAIIGSLKDNRPQGWCLSDTYLKCAMNAREENPWVPDDTYYCRLIGRLVDTMAGKSPGPFPNCDWRFNEFPNPAAHALHVTCVELMALAVSGKEVGNALLNVVLKSQPLVPRENITAWMNAIGLIITALPEPYWIVLHDRIVSVISSPSLTSETEWVGYPFRLFDFTACHQSYSEMSCSYTLALAHAVWHHSSIGQLSLIPKFLTEVLLPIVKTEFQLLYVYHLVGPFLQRFQQERTRCMIEIGVAFYDMLLNVDQCSTHLNYMDPICDFLYHMKYMFTGDSVKEQVEKIICNLKPALKLRLRFITHISKMEPAAVPPQAMNSGSPAPQSNQVPVSLPVTQ [MED23] | -0.217 | 50.5 °C | 51.1 °C | -0.141 | 1.35 | 1.94
